According to patent publication US11447566B2, “Anti-tissue factor antibodies, antibody-drug conjugates, and related methods” (Iconic Therapeutics, Inc., priority 2018, dated 2022):

Legend:
[1] = biological target: T1, human TF on MDA-MB-231 cells (FVII-Fc binding) (Homo sapiens, UniProt P13726); test: FVIIa competition assay; settings: highest concentration of antibody; FIG. 14B
T1 construct: TF-positive MDA-MB-231 cells (ATCC, Manassas, Va., USA); host or cells: MDA-MB-231
Description: To evaluate competition between FVIIa and the human antibodies against TF, TF-positive MDA-MB-231 cells (ATCC, Manassas, Va., USA) were first incubated for 1 hr on ice with a titration of the human antibodies against TF. Subsequently, a final concentration of 20 nM of FVII-Fc conjugated to Alexa488 was added to the antibody cell mixture. After another 1 hr incubation on ice, cells were washed, stained with a viability dye, and analyzed by flow cytometry. The Alexa488 fluorescence data from viable cells was summarized using median fluorescence intensity.
Subsequently, FVII-Fc conjugated to Alexa488 was added to the antibody-cell mixture at a final concentration of 20 nM. After another 1 hr incubation on ice, cells were washed, stained with a viability dye, and analyzed by flow cytometry. The Alexa488 fluorescence data from viable cells was summarized using median fluorescence intensity (MFI).

[2] = biological target: T2, human TF on MDA-MB-231 cells (25A3-Alexa488 binding) (Homo sapiens, UniProt P13726); test: Antibody competition assay with 25A3; settings: pre-incubation with unlabeled competitor antibody
T2 construct: TF-positive MDA-MB-231 cells (ATCC, Manassas, Va., USA); host or cells: MDA-MB-231
Description: Alexa Fluor antibodies were generated using Alexa Fluor 488 5-sulfo-[…] esters (ThermoFisher Scientific) following manufacturer's protocol. Excess Alexa Fluor dye was removed from the antibody dye conjugate preparations by gel filtration (ThermoFisher Scientific).
After another 1 hr incubation on ice, cells were washed, stained with a viability dye, and analyzed by flow cytometry. The Alexa488 fluorescence data from viable cells was summarized using median fluorescence intensity.

[3] = biological target: T3, human, rat and chimeric human-rat TF constructs expressed on HEK293 cells (Homo sapiens, UniProt P13726, A112W/A121G/E116T/E127T/E131K/E137D/G113R/G119T/G122E/L125P/L136R/N139K/P130R/S117H/S120H/S129A/T118G/T133L/V115S/Y110V/Y126F); test: Live cell staining assay on chimeric TF constructs (epitope binning); format: cell-based; settings: construct h78-107_r (21), human segment replaced by rat segment
T3 construct: expressed in transfected cells; host or cells: HEK293
Description: (§1) To establish binding of the anti-human TF antibodies to the various TF constructs, HEK293 cells were transfected with a DNA plasmid that co-expresses the TF construct and a green fluorescent protein marker. […] Two days after transfection, cells were collected from the tissue culture plate, stained with 15 μg/ml of the indicated anti-TF antibody, washed, stained with anti-human IgG-Fc Alexa Fluor 647 polyclonal antibody, washed, and stained with the viability dye 4′,6-Diamidino-2-Phenylindole, Dihydrochloride. Upon acquisition of 80,000 live events on a flow cytometer, live cells marked with the fluorescent marker were analyzed for the degree of staining by the anti-TF antibody. […] As used herein, the term “live cell staining assay” refers to the antibody binding assay used in this example.
(§2) When “Percentage antibody binding to TF construct relative to hTF” in Tables 51 and 52 was less than 50%, the antibody was considered a non-binder (0) in Tables 53 and 54.
(§3) Each antibody was assigned to an epitope bin in Table 55 based on the combination of unbound constructs from Table 53.

[4] = biological target: T4, human, rat and chimeric human-rat TF constructs expressed on HEK293 cells (Homo sapiens, UniProt P13726, A200N/K201T/N203H); test: as above; format: cell-based; settings: construct h167-174_r (3), human segment replaced by rat segment
T4 construct: expressed in transfected cells; host or cells: HEK293
Description: as §1, §2, §3

[5] = biological target: T5, human, rat and chimeric human-rat TF constructs expressed on HEK293 cells (Homo sapiens, UniProt P13726, D177Q/N170G/R168K/S174T); test: as above; format: cell-based; settings: construct h133-145_r (4), human segment replaced by rat segment
T5 construct: expressed in transfected cells; host or cells: HEK293
Description: as §1, §2, §3

[6] = biological target: T6, human, rat and chimeric human-rat TF constructs expressed on HEK293 cells (Homo sapiens, UniProt P13726, D177Q/S174T); test: as above; format: cell-based; settings: construct h140-145_r (2), human segment replaced by rat segment
T6 construct: expressed in transfected cells; host or cells: HEK293
Description: as §1, §2, §3

[7] = biological target: T7, human, rat and chimeric human-rat TF constructs expressed on HEK293 cells (Homo sapiens, UniProt P13726, E127T/E131K/E137D/L136R/N139K/P130R/S129A/T133L/Y126F); test: as above; format: cell-based; settings: construct h94-107_r (9), human segment replaced by rat segment
T7 construct: expressed in transfected cells; host or cells: HEK293
Description: as §1, §2, §3

[8] = biological target: T8, human, rat and chimeric human-rat TF constructs expressed on HEK293 cells (Homo sapiens, UniProt P13726, K100N); test: as above; format: cell-based; settings: construct hTF_K68N
T8 construct: expressed in transfected cells; host or cells: HEK293
Description: as §1, §2, §3

[9] = biological target: T9, human, rat and chimeric human-rat TF constructs expressed on HEK293 cells (Homo sapiens, UniProt P13726, K181N); test: as above; format: cell-based
T9 construct: expressed in transfected cells; host or cells: HEK293
Description: as §1, §2, §3

[10] = biological target: T10, human, rat and chimeric human-rat TF constructs expressed on HEK293 cells (Homo sapiens, UniProt P13726, K197R/S192D/S195T); test: as above; format: cell-based; settings: construct h159-166_r (3), human segment replaced by rat segment
T10 construct: expressed in transfected cells; host or cells: HEK293
Description: as §1, §2, §3

[11] = biological target: T11, human, rat and chimeric human-rat TF constructs expressed on HEK293 cells (Homo sapiens, UniProt P13726, N170G/R168K); test: as above; format: cell-based; settings: construct h133-139_r (2), human segment replaced by rat segment
T11 construct: expressed in transfected cells; host or cells: HEK293
Description: as §1, §2, §3

[12] = biological target: T12, human, rat and chimeric human-rat TF constructs expressed on HEK293 cells (Homo sapiens, UniProt P13726, N203H/T229K); test: as above; format: cell-based; settings: construct hTF_N171H_T197K
T12 construct: expressed in transfected cells; host or cells: HEK293
Description: as §1, §2, §3

[13] = biological target: T13, human, rat and chimeric human-rat TF constructs expressed on HEK293 cells (Homo sapiens, UniProt P13726, S192D); test: as above; format: cell-based; settings: construct h159-219_r (27), human segment replaced by rat segment
T13 construct: expressed in transfected cells; host or cells: HEK293
Description: as §1, §2, §3

[14] = biological target: T14, human, rat and chimeric human-rat TF constructs expressed on HEK293 cells (Rattus norvegicus, UniProt P42533); test: as above; format: cell-based; settings: construct rTF
T14 construct: expressed in transfected cells; host or cells: HEK293
Description: as §1, §2, §3

[15] = biological target: T15, human, rat and chimeric human-rat TF constructs expressed on HEK293 cells (Rattus norvegicus, UniProt P42533, A222V/D193S/E213D/F221S/G171N/G185I/H204N/I187T/K169R/N182K/N201A/Q178D/R191W/R198K/S217N/T175S/T189Y/T196S/T202K/V216E); test: as above; format: cell-based; settings: construct r141-194_h, rat amino acid segment replaced by human segment (20 amino acid changes)
T15 construct: expressed in transfected cells; host or cells: HEK293
Description: as §1, §2, §3

[16] = system: human, rat and chimeric human-rat TF constructs expressed on HEK293 cells; test: as above; format: cell-based; settings: for Antibody binding to TF construct: human segment replaced by rat segment
Description: as §1, §2, §3

## TF-011 [reference compound]
[1]
  competition with FVII: effectively competed
[2]
  % 25A3 binding: did not reduce
[3]
  Antibody binding to TF construct: 0 (less than 50%, the antibody was considered a non-binder (0))
[4]
  Antibody binding to TF construct: 1 (between 50% and 150%, the antibody was considered a binder (1))
[5]
  Antibody binding to TF construct: 1 (between 50% and 150%, the antibody was considered a binder (1))
[6]
  Antibody binding to TF construct: 1 (between 50% and 150%, the antibody was considered a binder (1))
[7]
  Antibody binding to TF construct: 0 (less than 50%, the antibody was considered a non-binder (0))
[8]
  Antibody binding to TF construct: 1 (between 50% and 150%, the antibody was considered a binder (1))
[9]; construct h146-151_r (1), human segment replaced by rat segment
  Antibody binding to TF construct: 1 (between 50% and 150%, the antibody was considered a binder (1))
[9]; construct hTF_K149N
  Antibody binding to TF construct: 1 (between 50% and 150%, the antibody was considered a binder (1))
[10]
  Antibody binding to TF construct: 1 (between 50% and 150%, the antibody was considered a binder (1))
[11]
  Antibody binding to TF construct: 1 (between 50% and 150%, the antibody was considered a binder (1))
[12]
  Antibody binding to TF construct: 1 (between 50% and 150%, the antibody was considered a binder (1))
[13]
  Antibody binding to TF construct: 1 (between 50% and 150%, the antibody was considered a binder (1))
[14]; Table 54
  Antibody binding to TF construct: 0 (less than 50%, the antibody was considered a non-binder (0))
[14]
  Antibody binding to TF construct: 0 (less than 50%, the antibody was considered a non-binder (0))
[15]
  Antibody binding to TF construct: 0 (less than 50%, the antibody was considered a non-binder (0))
[16]; assignment based on unbound chimeric constructs
  Epitope Bin: 1
[16]; chimeric human-rat TF constructs of Table 53
  Constructs not bound by antibody: rTF, h1-107_r, h1-77_r, h39-77_r, h78-107_r, h78-107_r.v2, h94-107_r
[16]; construct h1-38_r (14)
  Antibody binding to TF construct: 1 (between 50% and 150%, the antibody was considered a binder (1))
[16]; construct h1-77_r (25)
  Antibody binding to TF construct: 0 (less than 50%, the antibody was considered a non-binder (0))
[16]; construct h1-107_r (52)
  Antibody binding to TF construct: 0 (less than 50%, the antibody was considered a non-binder (0))
[16]; construct h78-93_r (18)
  Antibody binding to TF construct: 1 (between 50% and 150%, the antibody was considered a binder (1))
[16]; construct h78-107_r.v2 (27)
  Antibody binding to TF construct: 0 (less than 50%, the antibody was considered a non-binder (0))
